Here are results for eight sequences from the supplement of paper PMC5998384.

Data set [1] deals with HeLa Kyoto. The experiment in a line: melting temperature (median over replicates), in situ; higher = more thermally stable.
Data set [2] relates to HeLa Kyoto. The experiment in a line: solubility in G1/S (NP-40 vs SDS abundance) (log2 ratio); higher = more soluble. To be noted: cell cycle stage: G1/S.
The test system of data set [3] is HeLa Kyoto. The experiment in a line: solubility change mitosis vs G1/S (difference of NP-40 vs SDS log2 ratios) (log2 ratio difference); higher = more soluble in mitosis.
The test system of data set [4] is HeLa Kyoto. The experiment in a line: thermal stability score vs G1/S (z-score of summed log2 fold changes over temperatures); higher = more thermally stable than in G1/S.
[5] abbreviates: cell cycle stage: early G1 (4.5 h after nocodazole release).
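Throughout, for melting temperature (median over replicates), in situ: HeLa Kyoto cells synchronized by double thymidine or nocodazole block, proteins quantified by TMT10plex mass spectrometry, three independent biological replicates.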
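Throughout, for solubility change mitosis vs G1/S (difference of NP-40 vs SDS log2 ratios): synchronized HeLa Kyoto cells (double thymidine block for G1/S, nocodazole release for mitosis), protein amounts in NP-40 versus SDS lysates quantified by mass spectrometry, three biological replicates.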
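Throughout, for solubility in G1/S (NP-40 vs SDS abundance): HeLa Kyoto cells arrested at G1/S by double thymidine block, proteins quantified by TMT10plex mass spectrometry in mild NP-40 versus SDS extracts, three biological replicates.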
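Throughout, for thermal stability score vs G1/S (z-score of summed log2 fold changes over temperatures): synchronized HeLa Kyoto cells, proteins quantified by TMT10plex mass spectrometry, three biological replicates, mitosis taken 0.5 h after nocodazole release, G1/S directly after double thymidine block.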

As to “MPGPRRPAGSRLRLLLLLLLPPLLLLLRGSHAGNLTVAVVLPLANTSYPWSWARVGPAVELALAQVKARPDLLPGWTVRTVLGSSENALGVCSDTAAPLAAVDLKWEHNPAVFLGPGCVYAAAPVGRFTAHWRVPLLTAGAPALGFGVKDEYALTTRAGPSYAKLGDFVAALHRRLGWERQALMLYAYRPGDEEHCFFLVEGLFMRVRDRLNITVDHLEFAEDDLSHYTRLLRTMPRKGRVIYICSSPDAFRTLMLLALEAGLCGEDYVFFHLDIFGQSLQGGQGPAPRRPWERGDGQDVSARQAFQAAKIITYKDPDNPEYLEFLKQLKHLAYEQFNFTMEDGLVNTIPASFHDGLLLYIQAVTETLAHGGTVTDGENITQRMWNRSFQGVTGYLKIDSSGDRETDFSLWDMDPENGAFRVVLNYNGTSQELVAVSGRKLNWPLGYPPPDIPKCGFDNEDPACNQDHLSTLEVLALVGSLSLLGILIVSFFIYRKMQLEKELASELWRVRWEDVEPSSLERHLRSAGSRLTLSGRGSNYGSLLTTEGQFQVFAKTAYYKGNLVAVKRVNRKRIELTRKVLFELKHMRDVQNEHLTRFVGACTDPPNICILTEYCPRGSLQDILENESITLDWMFRYSLTNDIVKGMLFLHNGAICSHGNLKSSNCVVDGRFVLKITDYGLESFRDLDPEQGHTVYAKKLWTAPELLRMASPPVRGSQAGDVYSFGIILQEIALRSGVFHVEGLDLSPKEIIERVTRGEQPPFRPSLALQSHLEELGLLMQRCWAEDPQERPPFQQIRLTLRKFNRENSSNILDNLLSRMEQYANNLEELVEERTQAYLEEKRKAEALLYQILPHSVAEQLKRGETVQAEAFDSVTIYFSDIVGFTALSAESTPMQVVTLLNDLYTCFDAVIDNFDVYKVETIGDAYMVVSGLPVRNGRLHACEVARMALALLDAVRSFRIRHRPQEQLRLRIGIHTGPVCAGVVGLKMPRYCLFGDTVNTASRMESNGEALKIHLSSETKAVLEEFGGFELELRGDVEMKGKGKVRTYWLLGERGSSTRG [NPR1]”, the melting temperature with HeLa Kyoto [1] (cell cycle stage: G1/S) came to 52.4 °C; in the data set with HeLa Kyoto [1] (cell cycle stage: mitosis), 51.4 °C. Further, the “solubility in G1/S (log2)” value with HeLa Kyoto [2] came out at 0.0297. The “solubility change mitosis (log2)” value with HeLa Kyoto [3] is -0.0544. Moreover, the thermal stability score with HeLa Kyoto [4] (setting [5]) is 0.231; in the data set on HeLa Kyoto [4] (cell cycle stage: mitosis) it was -0.0841.

For the sequence “MPGRAPLRTVPGALGAWLLGGLWAWTLCGLCSLGAVGAPRPCQAPQQWEGRQVMYQQSSGRNSRALLSYDGLNQRVRVLDERKALIPCKRLFEYILLYKDGVMFQIDQATKQCSKMTLTQPWDPLDIPQNSTFEDQYSIGGPQEQITVQEWSDRKSARSYETWIGIYTVKDCYPVQETFTINYSVILSTRFFDIQLGIKDPSVFTPPSTCQMAQLEKMSEDCSW [EPDR1]”, the melting temperature in the data set on HeLa Kyoto [1] (cell cycle stage: G1/S) came to 56.1 °C; with HeLa Kyoto [1] (cell cycle stage: mitosis), 55 °C. Further, in the data set on HeLa Kyoto [2], the “solubility in G1/S (log2)” value is 0.348. The “solubility change mitosis (log2)” value in the data set on HeLa Kyoto [3] was -0.162. Besides, the thermal stability score in the data set on HeLa Kyoto [4] (setting [5]) was -1.3; in the data set with HeLa Kyoto [4] (cell cycle stage: mitosis), -2.65.

For “MPGSAAKGSELSERIESFVETLKRGGGPRSSEEMARETLGLLRQIITDHRWSNAGELMELIRREGRRMTAAQPSETTVGNMVRRVLKIIREEYGRLHGRSDESDQQESLHKLLTSGGLNEDFSFHYAQLQSNIIEAINELLVELEGTMENIAAQALEHIHSNEVIMTIGFSRTVEAFLKEAARKRKFHVIVAECAPFCQGHEMAVNLSKAGIETTVMTDAAIFAVMSRVNKVIIGTKTILANGALRAVTGTHTLALAAKHHSTPLIVCAPMFKLSPQFPNEEDSFHKFVAPEEVLPFTEGDILEKVSVHCPVFDYVPPELITLFISNIGGNAPSYIYRLMSELYHPDDHVL [EIF2B2]”, the melting temperature in the data set with HeLa Kyoto [1] (cell cycle stage: G1/S) was 51.4 °C; in the data set on HeLa Kyoto [1] (cell cycle stage: mitosis), 50.5 °C. Also, in the data set with HeLa Kyoto [2], the “solubility in G1/S (log2)” value came out at 0.101. In the data set with HeLa Kyoto [3], the “solubility change mitosis (log2)” value was -0.191. Moreover, the thermal stability score was 1.74 with HeLa Kyoto [4] (setting [5]) and 0.854 with HeLa Kyoto [4] (cell cycle stage: mitosis).

Turning to “MPHLENVVLCRESQVSILQSLFGERHHFSFPSIFIYGHTASGKTYVTQTLLKTLELPHVFVNCVECFTLRLLLEQILNKLNHLSSSEDGCSTEITCETFNDFVRLFKQVTTAENLKDQTVYIVLDKAEYLRDMEANLLPGFLRLQELADRNVTVLFLSEIVWEKFRPNTGCFEPFVLYFPDYSIGNLQKILSHDHPPEYSADFYAAYINILLGVFYTVCRDLKELRHLAVLNFPKYCEPVVKGEASERDTRKLWRNIEPHLKKAMQTVYLREISSSQWEKLQKDDTDPGQLKGLSAHTHVELPYYSKFILIAAYLASYNPARTDKRFFLKHHGKIKKTNFLKKHEKTSNHLLGPKPFPLDRLLAILYSIVDSRVAPTANIFSQITSLVTLQLLTLVGHDDQLDGPKYKCTVSLDFIRAIARTVNFDIIKYLYDFL [ORC5]”, the melting temperature in the data set on HeLa Kyoto [1] (cell cycle stage: G1/S) came to 47.1 °C; in the data set on HeLa Kyoto [1] (cell cycle stage: mitosis) it was 49 °C. Further, in the data set on HeLa Kyoto [2], the “solubility in G1/S (log2)” value is -0.362. Further, the “solubility change mitosis (log2)” value in the data set with HeLa Kyoto [3] was -0.126. For the same sequence, the thermal stability score in the data set on HeLa Kyoto [4] (setting [5]) was 0.957; with HeLa Kyoto [4] (cell cycle stage: mitosis), 1.24.

On to “MPKAKGKTRRQKFGYSVNRKRLNRNARRKAAPRIECSHIRHAWDHAKSVRQNLAEMGLAVDPNRAVPLRKRKVKAMEVDIEERPKELVRKPYVLNDLEAEASLPEKKGNTLSRDLIDYVRYMVENHGEDYKAMARDEKNYYQDTPKQIRSKINVYKRFYPAEWQDFLDSLQKRKMEVE [NOP16]”, for which the melting temperature is 57.3 °C with HeLa Kyoto [1] (cell cycle stage: G1/S) and 54.2 °C with HeLa Kyoto [1] (cell cycle stage: mitosis). Further, the “solubility in G1/S (log2)” value with HeLa Kyoto [2] was -1.15. In addition, in the data set on HeLa Kyoto [3], the “solubility change mitosis (log2)” value was found to be 1.22. Further, the thermal stability score was -0.631 in the data set with HeLa Kyoto [4] (setting [5]) and -6.32 in the data set with HeLa Kyoto [4] (cell cycle stage: mitosis).

As for “MPLELELCPGRWVGGQHPCFIIAEIGQNHQGDLDVAKRMIRMAKECGADCAKFQKSELEFKFNRKALERPYTSKHSWGKTYGEHKRHLEFSHDQYRELQRYAEEVGIFFTASGMDEMAVEFLHELNVPFFKVGSGDTNNFPYLEKTAKKGRPMVISSGMQSMDTMKQVYQIVKPLNPNFCFLQCTSAYPLQPEDVNLRVISEYQKLFPDIPIGYSGHETGIAISVAAVALGAKVLERHITLDKTWKGSDHSASLEPGELAELVRSVRLVERALGSPTKQLLPCEMACNEKLGKSVVAKVKIPEGTILTMDMLTVKVGEPKGYPPEDIFNLVGKKVLVTVEEDDTIMEELVDNHGKKIKS [NANS]”, the values for the melting temperature in the data set on HeLa Kyoto [1] (cell cycle stage: G1/S) and with HeLa Kyoto [1] (cell cycle stage: mitosis) were 53 °C and 52.3 °C, respectively. For the same sequence, the “solubility in G1/S (log2)” value with HeLa Kyoto [2] was 0.172. Further, the “solubility change mitosis (log2)” value in the data set with HeLa Kyoto [3] was -0.108. The values for the thermal stability score in the data set with HeLa Kyoto [4] (setting [5]) and with HeLa Kyoto [4] (cell cycle stage: mitosis) were -1.59 and -2.55, respectively.

On to “MPLFFRKRKPSEEARKRLEYQMCLAKEAGADDILDISKCELSEIPFGAFATCKVLQKKVLIVHTNHLTSLLPKSCSLLSLATIKVLDLHDNQLTALPDDLGQLTALQVLNVERNQLMQLPRSIGNLTQLQTLNVKDNKLKELPDTVGELRSLRTLNISGNEIQRLPQMLAHVRTLEMLSLDASAMVYPPREVCGAGTAAILQFLCKESGLEYYPPSQYLLPILEQDGIENSRDSPDGPTDRFSREELEWQNRFSDYEKRKEQKMLEKLEFERRLELGQREHTQLLQQSSSQKDEILQTVKEEQSRLEQGLSEHQRHLNAERQRLQEQLKQTEQNISSRIQKLLQDNQRQKKSSEILKSLENERIRMEQLMSITQEETESLRRRDVASAMQQMLTESCKNRLIQMAYESQRQNLVQQACSSMAEMDERFQQILSWQQMDQNKAISQILQESAMQKAAFEALQVKKDLMHRQIRSQIKLIETELLQLTQLELKRKSLDTESLQEMISEQRWALSSLLQQLLKEKQQREEELREILTELEAKSETRQENYWLIQYQRLLNQKPLSLKLQEEGMERQLVALLEELSAEHYLPIFAHHRLSLDLLSQMSPGDLAKVGVSEAGLQHEILRRVQELLDAARIQPELKPPMGEVVTPTAPQEPPESVRPSAPPAELEVQASECVVCLEREAQMIFLNCGHVCCCQQCCQPLRTCPLCRQDIAQRLRIYHSS [LRSAM1]”, for which the melting temperature with HeLa Kyoto [1] (cell cycle stage: G1/S) came out at 51 °C; in the data set with HeLa Kyoto [1] (cell cycle stage: mitosis) it was 50.9 °C. The “solubility in G1/S (log2)” value in the data set with HeLa Kyoto [2] was 0.149. Further, in the data set on HeLa Kyoto [3], the “solubility change mitosis (log2)” value is -0.0589. Also, the thermal stability score with HeLa Kyoto [4] (setting [5]) was 0.0283; with HeLa Kyoto [4] (cell cycle stage: mitosis), 0.57.

For the sequence “MPLNRTLSMSSLPGLEDWEDEFDLENAVLFEVAWEVANKVGGIYTVLQTKAKVTGDEWGDNYFLVGPYTEQGVRTQVELLEAPTPALKRTLDSMNSKGCKVYFGRWLIEGGPLVVLLDVGASAWALERWKGELWDTCNIGVPWYDREANDAVLFGFLTTWFLGEFLAQSEEKPHVVAHFHEWLAGVGLCLCRARRLPVATIFTTHATLLGRYLCAGAVDFYNNLENFNVDKEAGERQIYHRYCMERAAAHCAHVFTTVSQITAIEAQHLLKRKPDIVTPNGLNVKKFSAMHEFQNLHAQSKARIQEFVRGHFYGHLDFNLDKTLYFFIAGRYEFSNKGADVFLEALARLNYLLRVNGSEQTVVAFFIMPARTNNFNVETLKGQAVRKQLWDTANTVKEKFGRKLYESLLVGSLPDMNKMLDKEDFTMMKRAIFATQRQSFPPVCTHNMLDDSSDPILTTIRRIGLFNSSADRVKVIFHPEFLSSTSPLLPVDYEEFVRGCHLGVFPSYYEPWGYTPAECTVMGIPSISTNLSGFGCFMEEHIADPSAYGIYILDRRFRSLDDSCSQLTSFLYSFCQQSRRQRIIQRNRTERLSDLLDWKYLGRYYMSARHMALSKAFPEHFTYEPNEADAAQGYRYPRPASVPPSPSLSRHSSPHQSEDEEDPRNGPLEEDGERYDEDEEAAKDRRNIRAPEWPRRASCTSSTSGSKRNSVDTATSSSLSTPSEPLSPTSSLGEERN [GYS1]”, the melting temperature in the data set on HeLa Kyoto [1] (cell cycle stage: G1/S) stood at 54.5 °C; in the data set with HeLa Kyoto [1] (cell cycle stage: mitosis), 55.2 °C. Moreover, the “solubility in G1/S (log2)” value with HeLa Kyoto [2] was -0.205. Also, the “solubility change mitosis (log2)” value in the data set with HeLa Kyoto [3] is -0.314. For the same sequence, the thermal stability score is 2.32 with HeLa Kyoto [4] (setting [5]) and 2.69 in the data set on HeLa Kyoto [4] (cell cycle stage: mitosis).
